Assay [1] concerns the target T1, human calcitonin receptor (human, UniProt P30988 25-474).
T1 construct: whole, on cells; Membranes of a BHK tk'ts 13 cell line stably transfected with the human calcitonin receptor; also called hCTR; hCT
T1 sequence (looked up): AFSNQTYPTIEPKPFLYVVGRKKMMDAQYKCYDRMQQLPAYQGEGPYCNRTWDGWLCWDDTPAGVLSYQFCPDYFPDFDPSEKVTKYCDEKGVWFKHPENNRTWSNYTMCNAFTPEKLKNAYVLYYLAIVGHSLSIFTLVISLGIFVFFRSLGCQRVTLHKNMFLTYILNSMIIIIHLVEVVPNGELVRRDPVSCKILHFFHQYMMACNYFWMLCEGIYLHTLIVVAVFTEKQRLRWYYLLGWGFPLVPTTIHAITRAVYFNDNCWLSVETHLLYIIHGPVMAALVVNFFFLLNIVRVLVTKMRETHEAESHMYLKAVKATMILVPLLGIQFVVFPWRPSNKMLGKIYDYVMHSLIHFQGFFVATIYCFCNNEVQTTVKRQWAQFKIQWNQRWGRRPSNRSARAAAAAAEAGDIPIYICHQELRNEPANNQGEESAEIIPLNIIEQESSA
Nature of the assay: IC50 at hCTR divided by IC50 at hAmylin-R (reference). Here is the method: The resulting pellet was resuspended, homogenized and centrifuged (20.000 rpm, 15 min) in a buffer containing 20 mM Na-HEPES and 0.1 mM EDTA (pH 7.4, buffer 2). The resulting pellet was resuspended in buffer 2 and protein concentration was measured (BCA protein Assay, Pierce). The homogenate was kept cold during the whole procedure. The membranes were kept at −80° C. until use. The assay was performed in a 384 well Optiplate (PerkinElmer) in a total volume of 40 ul. Membranes were mixed with SPA beads. Final concentration of membranes 35 ng/μL final and SPA beads was 0.05 mg/well. Test-compounds were dissolved in DMSO and further diluted in assay buffer (50 mM Hepes, pH 7.4, 1 mM CaCl2, 5 mM MgCl₂, 0.1% OA and 0.02% Tween20). […] The final mixture was incubated with shaking at 400 rpm for 120 min at 25° C. prior to centrifugation (1500 rpm, 10 min). Samples were analyzed on TopCounter™ (Packard). The IC₅₀ was calculated using (one site binding competition analysis) GraphPad Prism5 as a measure of receptor affinity.
Membranes were prepared in the following way; the cells were rinsed with PBS and incubated with Versene for approximately 5 min before harvesting. The cells were flushed with PBS and the cell-suspension was centrifuged for 5 min at 1000 rpm. Cells were homogenized (Ultrathurrax) in a buffer containing 20 mM Na-HEPES and 10 mM EDTA (pH 7.4) and centrifuged at 20.000 rpm for 15 min. The resulting pellet was resuspended, homogenized and centrifuged (20.000 rpm, 15 min) in a buffer containing 20 mM Na-HEPES and 0.1 mM EDTA (pH 7.4, buffer 2). The resulting pellet was resuspended in buffer 2 and protein concentration was measured (BCA protein Assay, Pierce). The homogenate was kept cold during the whole procedure. The membranes were kept at −80° C. until use. Assay was performed in a 384 well Optiplate (PerkinElmer) in a total volume of 40 ul. Membranes were mixed with SPA beads.

The target in assay [2] is T2, rat calcitonin receptor (rat, UniProt P32214 25-516).
T2 construct: whole, on cells; Membranes of BHK tk'ts 13 cells transiently transfected with the rat calcitonin receptor; also called rCTR; rat calcitonin (a) receptor
T2 sequence (looked up): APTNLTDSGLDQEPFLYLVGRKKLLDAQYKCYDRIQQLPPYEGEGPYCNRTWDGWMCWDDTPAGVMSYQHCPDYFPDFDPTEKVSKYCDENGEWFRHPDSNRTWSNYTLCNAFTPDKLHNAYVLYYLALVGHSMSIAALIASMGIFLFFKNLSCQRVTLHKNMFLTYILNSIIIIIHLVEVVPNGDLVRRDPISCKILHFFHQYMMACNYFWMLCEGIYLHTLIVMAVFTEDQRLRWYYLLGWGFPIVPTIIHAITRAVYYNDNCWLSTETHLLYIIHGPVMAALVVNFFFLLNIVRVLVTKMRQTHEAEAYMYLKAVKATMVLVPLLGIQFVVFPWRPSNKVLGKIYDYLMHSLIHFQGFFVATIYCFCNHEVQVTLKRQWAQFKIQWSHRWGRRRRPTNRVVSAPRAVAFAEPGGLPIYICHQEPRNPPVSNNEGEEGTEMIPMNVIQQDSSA
Kind of assay: IC50 at rCTR divided by IC50 at rAmylin-R (reference).

Assay [3] has as its target T2, rat calcitonin receptor. Kind of assay: SPA competition vs 125I-calcitonin, membranes with rat CTR (Assay VIII).
The target in assay [4] is T3, rat amylin receptor (rat calcitonin receptor + rat RAMP 3) (rat, UniProt P32214 25-516; Q9JJ73 23-147).
T3 construct: whole, on cells; Membranes of BHK tk'ts 13 cells transiently transfected with the rat calcitonin receptor and rat RAMP 3; also called rAmylin-R; rat amylin 3(a) receptor
T3 sequence (looked up) 1: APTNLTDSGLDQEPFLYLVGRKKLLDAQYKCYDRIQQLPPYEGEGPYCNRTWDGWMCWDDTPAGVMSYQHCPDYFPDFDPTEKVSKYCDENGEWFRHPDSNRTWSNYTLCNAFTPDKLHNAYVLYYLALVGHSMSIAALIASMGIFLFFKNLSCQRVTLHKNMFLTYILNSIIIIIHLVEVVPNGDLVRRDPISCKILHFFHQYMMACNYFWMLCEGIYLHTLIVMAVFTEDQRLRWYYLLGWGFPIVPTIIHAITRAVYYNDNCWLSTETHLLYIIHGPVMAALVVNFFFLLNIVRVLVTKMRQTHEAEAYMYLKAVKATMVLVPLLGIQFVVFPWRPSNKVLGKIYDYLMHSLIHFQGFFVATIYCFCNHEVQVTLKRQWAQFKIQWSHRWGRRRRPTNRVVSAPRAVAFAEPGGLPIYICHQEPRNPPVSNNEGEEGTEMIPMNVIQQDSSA
T3 sequence (looked up) 2: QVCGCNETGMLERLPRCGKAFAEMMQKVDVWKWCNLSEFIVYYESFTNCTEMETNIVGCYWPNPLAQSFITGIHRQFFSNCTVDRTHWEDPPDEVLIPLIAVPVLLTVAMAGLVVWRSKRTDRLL
Kind of assay: SPA competition vs 125I-rat amylin, membranes with rat CTR + rat RAMP3 (Assay VI). As for the experimental part:
The binding assay was performed using scintillation proximity assay (SPA) beads (RPNQ0001) from PerkinElmer and cell membranes from the Amylin 3(a)/CRE-luc cells (as described in Assay (II)) were used. Membranes were prepared in the following way; the cells were rinsed with PBS and incubated with Versene for approximately 5 min before harvesting. The cells were flushed with PBS and the cell-suspension was centrifuged for 5 min at 1000 rpm. Cells were homogenized (ultrathurrax) in a buffer containing 20 mM Na-HEPES and 10 mM EDTA (pH 7.4) and centrifuged at 20.000 rpm for 15 min. The resulting pellet was resuspended, homogenized and centrifuged (20.000 rpm, 15 min) in a buffer containing 20 mM Na-HEPES and 0.1 mM EDTA (pH 7.4, buffer 2). The resulting pellet was resuspended in buffer 2 and protein concentration was measured (BCA protein Assay, Pierce). The homogenate was kept cold during the whole procedure. The membranes were kept at −80° C. until use. The assay was performed in a 384 well Optiplate (PerkinElmer) in a total volume of 40 ul. Membranes were mixed with SPA beads. Final concentration of membranes 35 ng/μL final and SPA beads was 0.05 mg/well. Test-compounds were dissolved in DMSO and further diluted in assay buffer (50 mM Hepes, pH 7.4, 1 mM CaCl2, 5 mM MgCl₂, 0.1% OA and 0.02% Tween20). […] The final mixture was incubated with shaking at 400 rpm for 120 min at 25° C. prior to centrifugation (1500 rpm, 10 min). Samples were analyzed on TopCounter™ (Packard). The IC₅₀ was calculated using (one site binding competition analysis) GraphPad Prism5 as a measure of receptor affinity.
Cells were grown in DMEM with 10% FBS and 1% Pen/Strep. Approximately 48 hours after transfection, the cells were harvested and membranes were prepared.

Here are results for three molecules from patent US20140087995A1 (published 2014).

Numbered stars: 1 amine (or outer) side, 2 acyl side, 3 side chain; on linkers, the order of the positions; unused ones are H or OH. Bridge positions count the residues as written; N and C are the ends. * marks the point of attachment. C20 diacid = O=C(O)CCCCCCCCCCCCCCCCCCC(=O)*; γGlu = O=C(O)[C@H](CCC(=O)[*:2])N[*:1]

B1: N^α1-[(4S)-4-carboxy-4-(19-carboxynonadecanoylamino)butanoyl]-[Glu14,Arg17,Pro21,Pro25,Pro28,Pro29]-h-amylin (peptide)
peptide: {C20 diacid-γGlu}-KCNTATCATQRLAEFLRHSSPNFGPILPPTNVGSNTY-NH2
modifications: disulfide 2-7
SMILES: CC[C@H](C)[C@H](NC(=O)[C@@H]1CCCN1C(=O)CNC(=O)[C@H](Cc1ccccc1)NC(=O)[C@H](CC(N)=O)NC(=O)[C@@H]1CCCN1C(=O)[C@H](CO)NC(=O)[C@H](CO)NC(=O)[C@H](Cc1c[nH]cn1)NC(=O)[C@H](CCCNC(=N)N)NC(=O)[C@H](CC(C)C)NC(=O)[C@H](Cc1ccccc1)NC(=O)[C@H](CCC(=O)O)NC(=O)[C@H](C)NC(=O)[C@H](CC(C)C)NC(=O)[C@H](CCCNC(=N)N)NC(=O)[C@H](CCC(N)=O)NC(=O)[C@@H](NC(=O)[C@H](C)NC(=O)[C@@H]1CSSC[C@H](NC(=O)[C@H](CCCCN)NC(=O)CC[C@H](NC(=O)CCCCCCCCCCCCCCCCCCC(=O)O)C(=O)O)C(=O)N[C@@H](CC(N)=O)C(=O)N[C@@H]([C@@H](C)O)C(=O)N[C@@H](C)C(=O)N[C@@H]([C@@H](C)O)C(=O)N1)[C@@H](C)O)C(=O)N[C@@H](CC(C)C)C(=O)N1CCC[C@H]1C(=O)N1CCC[C@H]1C(=O)N[C@H](C(=O)N[C@@H](CC(N)=O)C(=O)N[C@H](C(=O)NCC(=O)N[C@@H](CO)C(=O)N[C@@H](CC(N)=O)C(=O)N[C@H](C(=O)N[C@@H](Cc1ccc(O)cc1)C(N)=O)[C@@H](C)O)C(C)C)[C@@H](C)O
notes: modifications are with respect to human amylin; also called compound 6
In the case of B1, the “Ratio hCT/hAmylin binding” value in assay [1] is 20. In addition, the “Ratio rCT/rAmylin binding” value with rat calcitonin receptor [2] amounted to 21.7. Further, the figures for the IC50 (with rat calcitonin receptor [3]; in assay [4]) were 51.5 nM and 2.37 nM, respectively.

B2: N^α1-[(4S)-4-carboxy-4-(19-carboxynonadecanoylamino)butanoyl]-[Glu14,Arg17,Pro21,Pro27,Arg35]-h-amylin (peptide)
peptide: {C20 diacid-γGlu}-KCNTATCATQRLAEFLRHSSPNFGAIPSSTNVGSRTY-NH2
modifications: disulfide 2-7
SMILES: CC[C@H](C)[C@H](NC(=O)[C@H](C)NC(=O)CNC(=O)[C@H](Cc1ccccc1)NC(=O)[C@H](CC(N)=O)NC(=O)[C@@H]1CCCN1C(=O)[C@H](CO)NC(=O)[C@H](CO)NC(=O)[C@H](Cc1c[nH]cn1)NC(=O)[C@H](CCCNC(=N)N)NC(=O)[C@H](CC(C)C)NC(=O)[C@H](Cc1ccccc1)NC(=O)[C@H](CCC(=O)O)NC(=O)[C@H](C)NC(=O)[C@H](CC(C)C)NC(=O)[C@H](CCCNC(=N)N)NC(=O)[C@H](CCC(N)=O)NC(=O)[C@@H](NC(=O)[C@H](C)NC(=O)[C@@H]1CSSC[C@H](NC(=O)[C@H](CCCCN)NC(=O)CC[C@H](NC(=O)CCCCCCCCCCCCCCCCCCC(=O)O)C(=O)O)C(=O)N[C@@H](CC(N)=O)C(=O)N[C@@H]([C@@H](C)O)C(=O)N[C@@H](C)C(=O)N[C@@H]([C@@H](C)O)C(=O)N1)[C@@H](C)O)C(=O)N1CCC[C@H]1C(=O)N[C@@H](CO)C(=O)N[C@@H](CO)C(=O)N[C@H](C(=O)N[C@@H](CC(N)=O)C(=O)N[C@H](C(=O)NCC(=O)N[C@@H](CO)C(=O)N[C@@H](CCCNC(=N)N)C(=O)N[C@H](C(=O)N[C@@H](Cc1ccc(O)cc1)C(N)=O)[C@@H](C)O)C(C)C)[C@@H](C)O
notes: modifications are with respect to human amylin; also called compound 16
With B2, the “Ratio hCT/hAmylin binding” value in assay [1] came out at 19.1. In the assay with rat calcitonin receptor [2], the “Ratio rCT/rAmylin binding” value is 45.6. Moreover, the IC50 (usually the concentration at which inhibition is half-maximal) is 55.2 nM in the assay with rat calcitonin receptor [3] and 1.21 nM in assay [4].

B3: N^α1-[(4S)-4-carboxy-4-(19-carboxynonadecanoylamino)butanoyl]-[Glu14,Arg17,Pro21,Pro26]-h-amylin (peptide)
peptide: {C20 diacid-γGlu}-KCNTATCATQRLAEFLRHSSPNFGAPLSSTNVGSNTY-NH2
modifications: disulfide 2-7
SMILES: CC(C)C[C@H](NC(=O)[C@H](CCCNC(=N)N)NC(=O)[C@H](CCC(N)=O)NC(=O)[C@@H](NC(=O)[C@H](C)NC(=O)[C@@H]1CSSC[C@H](NC(=O)[C@H](CCCCN)NC(=O)CC[C@H](NC(=O)CCCCCCCCCCCCCCCCCCC(=O)O)C(=O)O)C(=O)N[C@@H](CC(N)=O)C(=O)N[C@@H]([C@@H](C)O)C(=O)N[C@@H](C)C(=O)N[C@@H]([C@@H](C)O)C(=O)N1)[C@@H](C)O)C(=O)N[C@@H](C)C(=O)N[C@@H](CCC(=O)O)C(=O)N[C@@H](Cc1ccccc1)C(=O)N[C@@H](CC(C)C)C(=O)N[C@@H](CCCNC(=N)N)C(=O)N[C@@H](Cc1c[nH]cn1)C(=O)N[C@@H](CO)C(=O)N[C@@H](CO)C(=O)N1CCC[C@H]1C(=O)N[C@@H](CC(N)=O)C(=O)N[C@@H](Cc1ccccc1)C(=O)NCC(=O)N[C@@H](C)C(=O)N1CCC[C@H]1C(=O)N[C@@H](CC(C)C)C(=O)N[C@@H](CO)C(=O)N[C@@H](CO)C(=O)N[C@H](C(=O)N[C@@H](CC(N)=O)C(=O)N[C@H](C(=O)NCC(=O)N[C@@H](CO)C(=O)N[C@@H](CC(N)=O)C(=O)N[C@H](C(=O)N[C@@H](Cc1ccc(O)cc1)C(N)=O)[C@@H](C)O)C(C)C)[C@@H](C)O
notes: modifications are with respect to human amylin; also called compound 7
Take B3: in assay [1], the “Ratio hCT/hAmylin binding” value turned out to be 16.5. For the same molecule, the “Ratio rCT/rAmylin binding” value with rat calcitonin receptor [2] is 42. The IC50 in the assay with rat calcitonin receptor [3] came out at 47.2 nM; in assay [4], 1.12 nM.
